{"source": "paper doi:10.1101/2025.01.23.634444", "molecular_target": "VraS-H6x (recombinant full-length histidine kinase VraS of Staphylococcus aureus with C-terminal H6x tag) (Staphylococcus aureus USA300-TCH1516)", "assay": "SEC", "data": [{"substance": "VraS-H6x (recombinant full-length histidine kinase VraS of Staphylococcus aureus with C-terminal H6x tag) (enzyme)", "values": [{"measurement": "stoichiometry N", "result": 2}]}]}
